Experimental data from patent US20230118307A1, “THERAPEUTIC USE OF LONG-ACTING CONJUGATE OF TRIPLE AGONIST HAVING ACTIVITIES TO ALL OF GLUCAGON/GLP-1/GIP RECEPTORS FOR LUNG DISEASE” (HANMI PHARM. CO., LTD., priority 2020, published 2023).
Positions of bridges follow the written chain, without caps; N, C: chain ends. Non-standard residues stand in square brackets, D forms with d. No end group written: not given here. Aib = CC(C)(N)C(=O)O

molecular target: T1, human GIP receptor (human, UniProt P48546 22-466); assay: cell-based or functional assay; details: not given
T1 sequence (looked up): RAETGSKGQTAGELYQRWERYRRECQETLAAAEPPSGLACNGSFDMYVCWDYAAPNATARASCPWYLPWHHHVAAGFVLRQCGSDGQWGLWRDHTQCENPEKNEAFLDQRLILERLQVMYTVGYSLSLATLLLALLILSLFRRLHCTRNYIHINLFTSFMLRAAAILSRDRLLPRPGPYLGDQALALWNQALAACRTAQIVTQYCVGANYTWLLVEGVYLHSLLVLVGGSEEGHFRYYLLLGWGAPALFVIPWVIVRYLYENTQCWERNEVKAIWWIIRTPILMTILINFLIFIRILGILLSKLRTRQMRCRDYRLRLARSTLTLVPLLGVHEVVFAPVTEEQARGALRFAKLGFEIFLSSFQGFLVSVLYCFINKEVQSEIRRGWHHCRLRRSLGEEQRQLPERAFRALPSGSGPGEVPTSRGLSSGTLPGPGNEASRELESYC

| Molecule | In vitro Activity Compared to Native Peptide (%) vs. GIP |
| --- | --- |
| H[Aib]QGTFTSDYSKYLDEKACKEFVQWLLAQ (bridge 16-20) [triple agonist of SEQ ID NO: 31] | 2.4% |
| H[Aib]QGTFTSDYSKYLDEKRAQEFVCWLLAQKGKKNDWKHNIT [triple agonist of SEQ ID NO: 28] | < 0.1% |
| Y[Aib]QGTFTSDYSKYLDECRAKEFVQWLLAQKGKKNDWKHNIT (bridge 16-20) [triple agonist of SEQ ID NO: 23] | < 0.1% |
| H[Aib]QGTFTSDYSKYLDEKACKDFVQWLLDGGPSSGAPPPS (bridge 16-20; also: ring type not given here) [triple agonist of SEQ ID NO: 32] | 8.8% |
| H[Aib]QGTFTSDYSKYLDEKAQKEFVQWLLDTC (bridge 16-20) [triple agonist of SEQ ID NO: 30] | 0.8% |
| H[Aib]QGTFTSDCSKYLDSRAAQDFVQWLLDGGPSSGAPPPS [triple agonist of SEQ ID NO: 26] | < 0.1% |
| H[Aib]QGTFTSDYSIAMDEIHQKDFVNWLLAQKC (bridge 16-20; also: ring type not given here) [triple agonist of SEQ ID NO: 33] | 10.4% |
| H[Aib]QGTFTSDYSKYLDEKAAKEFVQWLLNTC (bridge 16-20) [triple agonist of SEQ ID NO: 29] | < 0.1% |
| H[Aib]QGTFTSDCSKYLDERAAQDFVQWLLDGGPSSGAPPPS [triple agonist of SEQ ID NO: 25] | < 0.1% |
| Y[Aib]QGTFTSDYSKYLDECRAKEFVQWLKNGGPSSGAPPPS (bridge 16-20) [triple agonist of SEQ ID NO: 24] | < 0.1% |
| H[Aib]QGTFTSDYSKYLDERACQDFVQWLLDQGGPSSGAPPPS [triple agonist of SEQ ID NO: 27] | 0.9% |
| H[Aib]QGTFTSDVSSYLLGQAAKQFIAWLVKGGGPSSGAPPPSC [triple agonist of SEQ ID NO: 3] | < 0.1% |

molecular target: human GCG receptor (human, UniProt P47871 26-477); assay: cell-based or functional assay; details: not given
Sequence (P47871 26-477): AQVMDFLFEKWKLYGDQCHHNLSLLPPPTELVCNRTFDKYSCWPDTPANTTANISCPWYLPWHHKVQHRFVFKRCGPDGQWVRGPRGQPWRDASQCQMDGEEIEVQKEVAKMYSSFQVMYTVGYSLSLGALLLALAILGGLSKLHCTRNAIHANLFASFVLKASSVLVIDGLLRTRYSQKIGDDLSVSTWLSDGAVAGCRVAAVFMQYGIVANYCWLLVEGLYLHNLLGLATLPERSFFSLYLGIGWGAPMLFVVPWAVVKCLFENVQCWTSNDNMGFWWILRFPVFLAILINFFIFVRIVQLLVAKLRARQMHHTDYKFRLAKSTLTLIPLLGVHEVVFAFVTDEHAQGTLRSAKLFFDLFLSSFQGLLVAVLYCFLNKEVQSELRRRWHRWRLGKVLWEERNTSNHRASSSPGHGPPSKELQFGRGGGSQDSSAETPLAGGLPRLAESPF

| Molecule | In vitro Activity Compared to Native Peptide (%) vs. Glucagon |
| --- | --- |
| H[Aib]QGTFTSDYSKYLDEKACKEFVQWLLAQ (bridge 16-20) [triple agonist of SEQ ID NO: 31] | 2.2% |
| H[Aib]QGTFTSDYSKYLDEKRAQEFVCWLLAQKGKKNDWKHNIT [triple agonist of SEQ ID NO: 28] | 1.6% |
| Y[Aib]QGTFTSDYSKYLDECRAKEFVQWLLAQKGKKNDWKHNIT (bridge 16-20) [triple agonist of SEQ ID NO: 23] | 9.3% |
| H[Aib]QGTFTSDYSKYLDEKACKDFVQWLLDGGPSSGAPPPS (bridge 16-20; also: ring type not given here) [triple agonist of SEQ ID NO: 32] | 1.7% |
| H[Aib]QGTFTSDYSKYLDEKAQKEFVQWLLDTC (bridge 16-20) [triple agonist of SEQ ID NO: 30] | 0.7% |
| H[Aib]QGTFTSDCSKYLDSRAAQDFVQWLLDGGPSSGAPPPS [triple agonist of SEQ ID NO: 26] | 0.2% |
| H[Aib]QGTFTSDYSIAMDEIHQKDFVNWLLAQKC (bridge 16-20; also: ring type not given here) [triple agonist of SEQ ID NO: 33] | < 0.1% |
| H[Aib]QGTFTSDYSKYLDEKAAKEFVQWLLNTC (bridge 16-20) [triple agonist of SEQ ID NO: 29] | 6% |
| H[Aib]QGTFTSDCSKYLDERAAQDFVQWLLDGGPSSGAPPPS [triple agonist of SEQ ID NO: 25] | 0.1% |
| Y[Aib]QGTFTSDYSKYLDECRAKEFVQWLKNGGPSSGAPPPS (bridge 16-20) [triple agonist of SEQ ID NO: 24] | 9.3% |
| H[Aib]QGTFTSDYSKYLDERACQDFVQWLLDQGGPSSGAPPPS [triple agonist of SEQ ID NO: 27] | 0.8% |
| H[Aib]QGTFTSDVSSYLLGQAAKQFIAWLVKGGGPSSGAPPPSC [triple agonist of SEQ ID NO: 3] | < 0.1% |

molecular target: human GLP-1 receptor (human, UniProt P43220 24-463); assay: cell-based or functional assay; details: not given

| Molecule | In vitro Activity Compared to Native Peptide (%) vs. GLP-1 |
| --- | --- |
| H[Aib]QGTFTSDYSKYLDEKACKEFVQWLLAQ (bridge 16-20) [triple agonist of SEQ ID NO: 31] | 135% |
| H[Aib]QGTFTSDYSKYLDEKRAQEFVCWLLAQKGKKNDWKHNIT [triple agonist of SEQ ID NO: 28] | 17.2% |
| Y[Aib]QGTFTSDYSKYLDECRAKEFVQWLLAQKGKKNDWKHNIT (bridge 16-20) [triple agonist of SEQ ID NO: 23] | 4.01% |
| H[Aib]QGTFTSDYSKYLDEKACKDFVQWLLDGGPSSGAPPPS (bridge 16-20; also: ring type not given here) [triple agonist of SEQ ID NO: 32] | 151% |
| H[Aib]QGTFTSDYSKYLDEKAQKEFVQWLLDTC (bridge 16-20) [triple agonist of SEQ ID NO: 30] | 142% |
| H[Aib]QGTFTSDCSKYLDSRAAQDFVQWLLDGGPSSGAPPPS [triple agonist of SEQ ID NO: 26] | 64.5% |
| H[Aib]QGTFTSDYSIAMDEIHQKDFVNWLLAQKC (bridge 16-20; also: ring type not given here) [triple agonist of SEQ ID NO: 33] | 24.5% |
| H[Aib]QGTFTSDYSKYLDEKAAKEFVQWLLNTC (bridge 16-20) [triple agonist of SEQ ID NO: 29] | 38.5% |
| H[Aib]QGTFTSDCSKYLDERAAQDFVQWLLDGGPSSGAPPPS [triple agonist of SEQ ID NO: 25] | 82.6% |
| Y[Aib]QGTFTSDYSKYLDECRAKEFVQWLKNGGPSSGAPPPS (bridge 16-20) [triple agonist of SEQ ID NO: 24] | 41.2% |
| H[Aib]QGTFTSDYSKYLDERACQDFVQWLLDQGGPSSGAPPPS [triple agonist of SEQ ID NO: 27] | 83.1% |
| H[Aib]QGTFTSDVSSYLLGQAAKQFIAWLVKGGGPSSGAPPPSC [triple agonist of SEQ ID NO: 3] | 1.8% |

test system: IPF mice (C57BL/6 mice treated with BLM); assay: Lung fibrosis in bleomycin (BLM) mice, Masson's trichrome staining; type: in vivo; details: BLM 1.5 U/head; 2 weeks; conjugate 3.9 nmol/kg Q2D subcutaneous; pirfenidone 300 mg/kg QD oral; ambroxol 45 mg/kg BID peritoneal; FIG. 5
Procedure: In order to confirm the in vivo efficacy of the long-acting conjugate of the triple agonist prepared in the above Examples for improving pulmonary fibrosis, particularly idiopathic pulmonary fibrosis (IPF), which is a representative pulmonary fibrosis, bleomycin (BLM) mice were used. It is known that, when bleomycin is administered intratracheally, the epithelial-mesenchymal transition occurs by damaging DNA of alveolar epithelial cells, which induces idiopathic fibrosis. In addition, it is known that when the BLM treatment dose is increased above a certain level, the survival rate of the mice is reduced due to severe lung damage caused by idiopathic fibrosis. […]
IPF mice prepared by treating C57BL/6 mice (ORIENT Bio, Busan, Korea) with BLM at 1.5 U/head were divided into an excipient control group, a long-acting conjugate of triple agonist administration group (3.9 nmol/kg, Q2D, subcutaneous), a pirfenidone administration group (300 mg/kg, QD, oral), and an ambroxol administration group (45 mg/kg, BID, peritoneal), repeated administration was performed for 2 weeks. After 2 weeks of repeated administration, lung tissue of each mouse was taken by autopsy, and the degree of fibrosis in the lung tissue was evaluated by Masson's trichrome staining. Statistical treatment evaluated the efficacy of the long-acting conjugate of the triple agonist using one-way ANOVA (*-***p<0.05-0.001).

| Molecule | positive area of Masson's trichrome staining in the lung tissue (degree of fibrosis) |
| --- | --- |
| Nc1c(Br)cc(Br)cc1CN[C@H]1CC[C@H](O)CC1 [ambroxol, reference compound] | same level of efficacy as the long-acting conjugate of the triple agonist |
